Reference: patent publication US20100229252, “MEGANUCLEASE VARIANTS CLEAVING A DNA TARGET SEQUENCE FROM THE HUMAN HEMOGLOBIN BETA GENE AND USES THEREOF” (CELLECTIS, published 2010)

Tests used:
Experiment in all cases: cell_activity; CHO extrachromosomal LacZ assay
[1] = biological target: T1, I-CreI heterodimer HBB5.3_B2 / HBB5.4_A6 (Chlamydomonas reinhardtii, UniProt P05725;P05725 SEQ:1-167,SEQ:1-167)
T1 chain 1: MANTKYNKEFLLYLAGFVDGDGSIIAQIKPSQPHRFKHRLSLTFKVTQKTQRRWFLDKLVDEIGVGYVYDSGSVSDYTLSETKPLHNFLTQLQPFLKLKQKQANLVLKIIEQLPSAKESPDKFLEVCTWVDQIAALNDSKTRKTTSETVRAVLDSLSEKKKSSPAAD
T1 chain 2: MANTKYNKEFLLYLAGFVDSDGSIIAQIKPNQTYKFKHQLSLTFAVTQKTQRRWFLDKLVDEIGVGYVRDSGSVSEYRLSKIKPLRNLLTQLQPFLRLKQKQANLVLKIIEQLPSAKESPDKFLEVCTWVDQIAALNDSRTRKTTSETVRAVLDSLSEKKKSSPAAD
Protocol: (§1) Several I-CreI refined mutants able to efficiently cleave the HBB 5 target in yeast when forming heterodimers were identified in example 7. In order to validate and characterize the heterodimer displaying the maximal efficacy to cleave the HBB 5 sequence in CHO cells, the efficiency of combinations of mutants able to cut the HBB 5 target were tested using an extrachromosomal assay in mammalian cells.
(§2) CHO cells were transfected with Polyfect® transfection reagent according to the supplier's protocol (QIAGEN). 72 hours after transfection, culture medium was removed and 150 μl of lysis/revelation buffer for β-galactosidase liquid assay was added (typically 1 liter of buffer contained: 100 ml of lysis buffer (Tris-HCl 10 mM pH7.5, NaCl 150 mM, Triton X100 0.1%, BSA 0.1 mg/ml, protease inhibitors), 10 ml of Mg 100×buffer (MgCl₂ 100 mM, β-mercaptoethanol 35%), 110 ml ONPG 8 mg/ml and 780 ml of sodium phosphate 0.1M pH7.5). After incubation at 37° C., OD was measured at 420 nm. The entire process was performed on an automated Velocity11 BioCel platform. Per assay, 150 ng of target vector was cotransfected with 12.5 ng of each HBB5 mutant expression vector (12.5 ng of vector encoding the mutant cleaving the palindromic HBB5.3 target and 12.5 ng of vector encoding the mutant cleaving palindromic HBB5.4 target).

[2] = biological target: T2, I-CreI heterodimer HBB5.3_A2 / HBB5.4_A5 (Chlamydomonas reinhardtii, UniProt P05725;P05725 SEQ:1-167,SEQ:1-167)
T2 chain 1: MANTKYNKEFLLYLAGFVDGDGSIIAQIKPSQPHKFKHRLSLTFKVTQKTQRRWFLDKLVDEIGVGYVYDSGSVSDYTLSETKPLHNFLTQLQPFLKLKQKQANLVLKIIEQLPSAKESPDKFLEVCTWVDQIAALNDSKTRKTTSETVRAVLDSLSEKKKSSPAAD
T2 chain 2: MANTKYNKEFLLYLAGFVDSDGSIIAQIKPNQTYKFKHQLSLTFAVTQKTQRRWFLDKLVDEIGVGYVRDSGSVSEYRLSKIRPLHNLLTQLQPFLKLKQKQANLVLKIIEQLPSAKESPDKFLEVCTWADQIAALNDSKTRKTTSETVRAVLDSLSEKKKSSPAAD
Protocol: as §1, §2

[3] = biological target: T3, I-CreI heterodimer HBB5.3_B2 / HBB5.4_B1 (Chlamydomonas reinhardtii, UniProt P05725;P05725 SEQ:1-167,SEQ:1-167)
T3 chain 1: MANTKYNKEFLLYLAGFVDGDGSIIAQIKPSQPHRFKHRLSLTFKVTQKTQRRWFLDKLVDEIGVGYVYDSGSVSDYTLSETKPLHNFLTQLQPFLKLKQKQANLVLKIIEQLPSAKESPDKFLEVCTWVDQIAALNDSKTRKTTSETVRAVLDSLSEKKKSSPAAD
T3 chain 2: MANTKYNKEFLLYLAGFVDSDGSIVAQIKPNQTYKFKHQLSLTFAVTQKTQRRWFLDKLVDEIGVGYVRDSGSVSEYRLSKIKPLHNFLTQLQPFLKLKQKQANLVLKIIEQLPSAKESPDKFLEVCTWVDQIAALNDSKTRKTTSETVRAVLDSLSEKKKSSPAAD
Protocol: as §1, §2

[4] = biological target: T4, I-CreI heterodimer HBB5.3_A3 / HBB5.4_A5 (Chlamydomonas reinhardtii, UniProt P05725;P05725 SEQ:1-167,SEQ:1-167)
T4 chain 1: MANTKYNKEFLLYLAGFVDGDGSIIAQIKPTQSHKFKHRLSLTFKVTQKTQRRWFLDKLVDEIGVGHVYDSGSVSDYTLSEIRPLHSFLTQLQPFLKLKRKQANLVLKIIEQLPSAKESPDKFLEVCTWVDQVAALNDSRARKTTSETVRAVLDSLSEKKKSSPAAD
T4 chain 2: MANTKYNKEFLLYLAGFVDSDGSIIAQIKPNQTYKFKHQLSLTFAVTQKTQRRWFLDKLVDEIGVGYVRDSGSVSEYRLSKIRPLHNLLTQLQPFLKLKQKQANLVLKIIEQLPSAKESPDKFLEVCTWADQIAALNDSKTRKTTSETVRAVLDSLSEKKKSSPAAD
Protocol: as §1, §2

[5] = biological target: T5, I-CreI heterodimer HBB5.3_E3 / HBB5.4_A6 (Chlamydomonas reinhardtii, UniProt P05725;P05725 SEQ:1-167,SEQ:1-167)
T5 chain 1: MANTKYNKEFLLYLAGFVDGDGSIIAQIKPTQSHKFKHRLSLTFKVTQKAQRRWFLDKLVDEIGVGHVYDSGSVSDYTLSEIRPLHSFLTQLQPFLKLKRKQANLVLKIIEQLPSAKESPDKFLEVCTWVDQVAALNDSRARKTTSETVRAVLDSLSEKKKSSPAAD
T5 chain 2: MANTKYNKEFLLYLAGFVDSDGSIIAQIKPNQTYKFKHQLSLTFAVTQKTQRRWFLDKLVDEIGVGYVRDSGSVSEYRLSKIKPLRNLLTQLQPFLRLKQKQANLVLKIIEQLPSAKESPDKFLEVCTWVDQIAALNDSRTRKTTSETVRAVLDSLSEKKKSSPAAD
Protocol: as §1, §2

[6] = biological target: T6, I-CreI heterodimer HBB5.3_B2 / HBB5.4_A5 (Chlamydomonas reinhardtii, UniProt P05725;P05725 SEQ:1-167,SEQ:1-167)
T6 chain 1: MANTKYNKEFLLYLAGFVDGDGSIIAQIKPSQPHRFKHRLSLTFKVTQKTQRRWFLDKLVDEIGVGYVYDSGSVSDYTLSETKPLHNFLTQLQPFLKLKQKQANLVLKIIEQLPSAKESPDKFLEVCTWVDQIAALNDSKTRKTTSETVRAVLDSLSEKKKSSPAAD
T6 chain 2: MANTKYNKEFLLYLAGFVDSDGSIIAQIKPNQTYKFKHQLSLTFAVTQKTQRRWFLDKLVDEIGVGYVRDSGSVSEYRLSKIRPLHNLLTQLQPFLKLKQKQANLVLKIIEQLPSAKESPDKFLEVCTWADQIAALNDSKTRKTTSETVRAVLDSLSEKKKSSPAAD
Protocol: as §1, §2

[7] = biological target: T7, I-CreI heterodimer HBB5.3_A2 / HBB5.4_B1 (Chlamydomonas reinhardtii, UniProt P05725;P05725 SEQ:1-167,SEQ:1-167)
T7 chain 1: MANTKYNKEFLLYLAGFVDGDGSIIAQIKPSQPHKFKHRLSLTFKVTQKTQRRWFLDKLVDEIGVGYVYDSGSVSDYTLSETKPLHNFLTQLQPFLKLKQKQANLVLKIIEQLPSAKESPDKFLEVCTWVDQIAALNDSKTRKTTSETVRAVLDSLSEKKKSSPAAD
T7 chain 2: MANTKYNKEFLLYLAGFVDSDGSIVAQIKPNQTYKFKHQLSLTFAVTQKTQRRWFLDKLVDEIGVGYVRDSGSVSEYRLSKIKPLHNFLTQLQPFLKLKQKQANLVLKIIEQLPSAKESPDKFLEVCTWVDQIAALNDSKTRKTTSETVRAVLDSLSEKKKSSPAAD
Protocol: as §1, §2

[8] = biological target: T8, I-CreI heterodimer HBB5.3_A3 / HBB5.4_B1 (Chlamydomonas reinhardtii, UniProt P05725;P05725 SEQ:1-167,SEQ:1-167)
T8 chain 1: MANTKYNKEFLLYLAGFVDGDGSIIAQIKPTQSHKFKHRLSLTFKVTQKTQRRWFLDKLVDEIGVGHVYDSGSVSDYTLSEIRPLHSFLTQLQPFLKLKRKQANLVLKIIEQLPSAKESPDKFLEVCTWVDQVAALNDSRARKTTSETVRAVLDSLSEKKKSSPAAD
T8 chain 2: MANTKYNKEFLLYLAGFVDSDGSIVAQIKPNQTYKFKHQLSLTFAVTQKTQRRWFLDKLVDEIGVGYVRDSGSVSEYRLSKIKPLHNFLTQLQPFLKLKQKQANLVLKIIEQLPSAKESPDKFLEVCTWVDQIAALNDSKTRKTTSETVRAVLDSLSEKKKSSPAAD
Protocol: as §1, §2

[9] = biological target: T9, I-CreI heterodimer HBB5.3_E3 / HBB5.4_A5 (Chlamydomonas reinhardtii, UniProt P05725;P05725 SEQ:1-167,SEQ:1-167)
T9 chain 1: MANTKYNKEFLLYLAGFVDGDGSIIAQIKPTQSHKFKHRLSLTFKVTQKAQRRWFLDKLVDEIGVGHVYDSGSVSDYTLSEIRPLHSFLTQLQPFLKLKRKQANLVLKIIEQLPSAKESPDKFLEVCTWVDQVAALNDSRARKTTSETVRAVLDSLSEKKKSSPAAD
T9 chain 2: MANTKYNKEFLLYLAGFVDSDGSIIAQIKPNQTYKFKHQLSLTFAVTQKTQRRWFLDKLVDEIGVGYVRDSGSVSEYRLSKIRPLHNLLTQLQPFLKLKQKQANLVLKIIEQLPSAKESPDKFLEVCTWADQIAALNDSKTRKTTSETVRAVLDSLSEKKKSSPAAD
Protocol: as §1, §2

[10] = biological target: T10, I-CreI heterodimer HBB5.3_E3 / HBB5.4_B1 (Chlamydomonas reinhardtii, UniProt P05725;P05725 SEQ:1-167,SEQ:1-167)
T10 chain 1: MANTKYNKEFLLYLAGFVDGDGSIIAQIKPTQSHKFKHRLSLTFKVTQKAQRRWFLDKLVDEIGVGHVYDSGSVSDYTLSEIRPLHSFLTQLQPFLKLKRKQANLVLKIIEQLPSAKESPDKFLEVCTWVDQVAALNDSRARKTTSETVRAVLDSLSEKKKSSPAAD
T10 chain 2: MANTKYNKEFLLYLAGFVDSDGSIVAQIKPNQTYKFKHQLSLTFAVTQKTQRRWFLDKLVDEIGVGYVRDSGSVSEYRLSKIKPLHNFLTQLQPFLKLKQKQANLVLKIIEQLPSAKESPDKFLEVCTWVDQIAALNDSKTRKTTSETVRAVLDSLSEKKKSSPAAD
Protocol: as §1, §2

B1: HBB5 (dsDNA)
DNA 1: CAAGACAGGTTTAAGGAGACCA
DNA 2: TGGTCTCCTTAAACCTGTCTTG
Which results are given for B1?
activity [1]: 0.54 absorbance units; activity [2]: 0.78 absorbance units; activity [3]: 0.33 absorbance units; activity [4]: 0.86 absorbance units; activity [5]: 0.71 absorbance units; activity [6]: 0.5 absorbance units; activity [7]: 0.42 absorbance units; activity [8]: 0.2 absorbance units; activity [9]: 0.46 absorbance units; activity [10]: 0.37 absorbance units
